32 variants from the RNAGym collection of RNA variant scans (doi:10.7554/elife.80360) can be followed below.

Sequences and labels used below:
B1: HDV Ribozyme (parent)
chain: GGCCGGCAUGGUCCCAGCCUCCUCGCUGGCGCCGGCUGGGCAACAUUCCGAGGGGACCGUCCCCUCGGUAAUGGCGAAUGGGACCCA

Variants of B1 are the subject of this data set. Nature of the data set: self-cleavage, relative activity (ratio to wild type); higher = more cleavage; co-transcriptional.
Consider GGCCGGCAUGGUCCCAGCCCCCUCGCUGGCGCCGGCUGGGCAACAUUCCGAGGGGACCGUCCCCUCGGUGAUGGCGAAUGGGACCCA [U20C A70G], for which the self-cleavage was 0.107.

GGCCGGCAUGGUCCCAGCCCCCUCGCUGGCGCCGGCUGGGCAACAUUCCGAGGGGACCGUCCCCUCGGUUAUGGCGAAUGGGACCCA [U20C A70U]: the self-cleavage turned out to be 0.0594. The value for GGCCGGCAUGGUCCCAGCCACCUCGCUGGCACCGGCUGGGCAACAUUCCGAGGGGACCGUCCCCUCGGUAAUGGCGAAUGGGACCCA [U20A G31A] was 0.155. Next, GGCCGGCAUGGUCCCAGCCACCCCGCUGGCGCCGGCUGGGCAACAUUCCGAGGGGACCGUCCCCUCGGUAAUGGCGAAUGGGACCCA [U20A U23C]: 0. The value for GGCCGGCAUGGUCCCAGCCACCUCGCUGGCGCCGGCUGGGCAACAUUCCGAGGGGACCGUCCCCUCGGUAAUGGCGAAUGCGACCCA [U20A G81C] was 0.0449. Take GGCCGGCAUGGUCCCAGCCACCUCGCUGGCGCCGGCUGGGCAACAUACCGAGGGGACCGUCCCCUCGGUAAUGGCGAAUGGGACCCA [U20A U47A]: the self-cleavage is 0.104. Turning to GGCCGGCAUGGUCCCAGCCACCUCGCUGGCGCCGGCUGGGCAACAUCCCGAGGGGACCGUCCCCUCGGUAAUGGCGAAUGGGACCCA [U20A U47C], the self-cleavage was 0.0594.

For the variant GGCCGGCAUGGUCCCAGCCACCUCGCUGGCGCCGGCUGGGCAACAUUCCGACGGGACCGUCCCCUCGGUAAUGGCGAAUGGGACCCA [U20A G52C], the self-cleavage is 0.0449. On to GGCCGGCAUGGUCCCAGCCACCUCGCUGGCGCCGGCUGGGCAACAUUCCGAGGGGACCGUCCCCUCGGUAAUUGCGAAUGGGACCCA [U20A G73U], for which the self-cleavage amounted to 0.0354.

On to GGCCGGCAUGGUCCCAGCCACCUCGCUGGCGCCGGCUGGGCAACAUUCCGAGGGGACCGUCCCCUCGGUAAUCGCGAAUGGGACCCA [U20A G73C], for which the self-cleavage turned out to be 0.0615. Regarding GGCCGGCAUGGUCCCAGCCACCUCGCUGGCGCCGGCUGGGCAACAUUCCGAGGGGACCGUCCCCUUGGUAAUGGCGAAUGGGACCCA [U20A C66U], the self-cleavage was determined as 0.0773.

On to GGCCGGCAUGGUCCCAGCCACCUCGCUGGCGCCGGCUGAGCAACAUUCCGAGGGGACCGUCCCCUCGGUAAUGGCGAAUGGGACCCA [U20A G39A], for which the self-cleavage was 0.133. Next, GGCCGGCAUGGUCCCAGCCACCUCGCCGGCGCCGGCUGGGCAACAUUCCGAGGGGACCGUCCCCUCGGUAAUGGCGAAUGGGACCCA [U20A U27C]: 0; GGCCGGCAUGGUCCCAGCCACCUCGCUGGCGCCGGCUGGGCAACAUUCCGAGGGGACCGUCCGCUCGGUAAUGGCGAAUGGGACCCA [U20A C63G]: 0; GGCCGGCAUGGUCCCAGCCACCUCGCUGGCGCCGGCUGGGCAACAUUCCGAGGGGACCGUCCCCUCGGUAAUGGCGAAUAGGACCCA [U20A G80A]: 0.0712. Next, GGCCGGCAUGGUCCCAGCCACCUCGCUGGCGCCGCCUGGGCAACAUUCCGAGGGGACCGUCCCCUCGGUAAUGGCGAAUGGGACCCA [U20A G35C]: 0.122; GGCCGGCAUGGUCCCAGCCACCUCGCUGGCGCCGUCUGGGCAACAUUCCGAGGGGACCGUCCCCUCGGUAAUGGCGAAUGGGACCCA [U20A G35U]: 0.0437. The value for GGCCGGCAUGGUCCCAGCCACCUCGCUGGCGCCGACUGGGCAACAUUCCGAGGGGACCGUCCCCUCGGUAAUGGCGAAUGGGACCCA [U20A G35A] was 0.158; that for GGCCGGCAUGGUCCCAGCCACCUCGCUGGCGCCGGCUGGGCAACAUUCCGAGGGGACCGUCCCCUCGGUAAUGGCGAAUGGAACCCA [U20A G82A] was 0.0739. Take GGCCGGCAUGGUCCCAGCCACCUCGCUGGCGCCGGCUGGGCAACAUUCCGAGGGGACCGUCCCCUCGGUAAUGGCGAAUGGGACGCA [U20A C85G]: the self-cleavage turned out to be 0.107.

As for GGCCGGCAUGGUCCCAGCCACCUCGCUGGCGCCGGCUGGGCAACAUUCCGAGGGGACCGACCCCUCGGUAAUGGCGAAUGGGACCCA [U20A U60A], the self-cleavage is 0.142. Turning to GGCCGGCAUGGUCCCAGCCACCUCGCUGGCGCCGGCCGGGCAACAUUCCGAGGGGACCGUCCCCUCGGUAAUGGCGAAUGGGACCCA [U20A U37C], the self-cleavage was 0.

GGCCGGCAUGGUCCCAGCCACCUCGCUGGCGCCGGCUGGUCAACAUUCCGAGGGGACCGUCCCCUCGGUAAUGGCGAAUGGGACCCA [U20A G40U]: the self-cleavage came to 0.0627. The value for GGCCGGCAUGGUCCCAGCCACCUCGCUGGCGCCGGCUGGGCAACAUUCCGAGGGAACCGUCCCCUCGGUAAUGGCGAAUGGGACCCA [U20A G55A] was 0.0959; that for GGCCGGCAUGGUCCCAGCCCCCUCGCUGGCGCCGGCUGGGCCACAUUCCGAGGGGACCGUCCCCUCGGUAAUGGCGAAUGGGACCCA [U20C A42C] was 0.158; that for GGCCGGCAUGGUCCCAGCCACCUCGCUGGCGCCGGCUGGGCAACAUUCCGAGGGGACCGUCCCCUCGGUAACGGCGAAUGGGACCCA [U20A U72C] was 0.0723. The value for GGCCGGCAUGGUCCCAGCCCCCUCGCUGGCGCCGGCUGGGCAACAUUCCGGGGGGACCGUCCCCUCGGUAAUGGCGAAUGGGACCCA [U20C A51G] was 0; that for GGCCGGCAUGGUCCCAGCCCCCUCGCUGGCGCCGGCUGGGCAACUUUCCGAGGGGACCGUCCCCUCGGUAAUGGCGAAUGGGACCCA [U20C A45U] was 0.166; that for GGCCGGCAUGGUCCCAGCCACCUCGCUGGCGCCGGCUCGGCAACAUUCCGAGGGGACCGUCCCCUCGGUAAUGGCGAAUGGGACCCA [U20A G38C] was 0.119.

GGCCGGCAUGGUCCCAGCCACCUCGCUGCCGCCGGCUGGGCAACAUUCCGAGGGGACCGUCCCCUCGGUAAUGGCGAAUGGGACCCA [U20A G29C]: the self-cleavage worked out at 0.128. The value for GGCCGGCAUGGUCCCAGCCACCUCGCUGGCGCCGGCUGGGCAACAAUCCGAGGGGACCGUCCCCUCGGUAAUGGCGAAUGGGACCCA [U20A U46A] was 0.0594; that for GGCCGGCAUGGUCCCAGCCACCUCGCUGGCGCCGGCUGGGCAACAUUCCGAGGGGACCGUCCCCUCGGUAAUGGAGAAUGGGACCCA [U20A C75A] was 0.0923.
